Results on one molecule are retold here after PMC9228142, “Going Retro, Going Viral: Experiences and Lessons in Drug Discovery from COVID-19”.

The data set has as its target nsp12 (RdRp catalytic subunit);nsp7;nsp8 (SARS-CoV-2;SARS-CoV-2;SARS-CoV-2, UniProt P0DTD1;P0DTD1;P0DTD1 4393-5324;3860-3942;3943-4140, ||). Kind of data set: EMSA. The conditions noted are these: protein: recombinant;recombinant;recombinant; tags: untagged (SUMO fusion cleaved, Ni2+-NTA and SEC purified);;; copies: 1;1;2; label: 5'-Cyanine 5.5.

B1: GA1 RNA scaffold (structured_RNA)
RNA: AAAAGAAAAGACGCGUAGUUUUCUACGCG
B1: the binding result is “binds”.
